Test results as given in US11142588B2, “Polypeptides which bind C-X-C chemokine receptor type 4 (CXCR4) and methods of treating or reducing the risk of fibrosis and cancer” (AdAlta Limited, priority 2015, dated 2021).

Key:
[1] = system: Human platelet rich plasma; assay: SDF-1α induced platelet aggregation; type: cell-based; conditions: 10 or 20 ug/mL, 100 nM SDF-1 alpha
Procedure: Experiments were carried out to examine whether the i-bodies could block platelet aggregation induced by SDF-1α. […] In the presence of negative control i-body 21H5 (or the isotype control for 12G5: mouse IgG2a). SDF-1 induced a robust and reproducible aggregation (the descending black curves, which indicate an increase in light transmission), which matches with what has been previously published.

[2] = system: human CD34+ stem and progenitor cells; assay: Mobilisation of human CD34+ cells in humanised NSG mice; type: in vivo, humanized NODSIL2Rγ (NSG) mice; conditions: humanised NSG mouse model, compared to AMD3100
Procedure: To acquire evidence of mobilisation of human CD34^+ stem and progenitor cells using CXCR4 i-bodies, the above mobilisation experiment was conducted in humanized NODSIL2Rγ (NSG) mice. NSG mice are severely immunodeficient and lack mature T cells, B-cells and NK cells and have severely defective innate immunity, which allows engraftment of human cells without subsequent rejection. NSG mice were transplanted with freshly sorted CD34^+ cord blood cells and upon confirmation of positive human CD45/CD34 engraftment (˜4-5 weeks) were used as a mouse model for human stem cell mobilisation.
Mobilised peripheral blood was harvested and assessed for CD34^+ (human stem and progenitors).

[3] = MOG induced experimental autoimmune encephalomyelitis (EAE); type: in vivo, mouse; conditions: immunohistochemistry, hematoxylin and eosin
Procedure: This is the time that has been reported to be critical for infiltration of inflammatory cells across the blood brain barrier. […] It appears that blocking this migration can alleviate the symptoms of EAE.
Immunohistochemistry of the brains of the experimental mice was performed.

[4] = Murine air pouch model with SDF-1; type: in vivo, BALB/c mice; conditions: intraperitoneal, 30 minutes before SDF-1 6 μg
Procedure: The ability of i-bodies to block inflammation was evaluated in an in vivo murine air pouch model. The subcutaneous (s.c.) air pouch is an in vivo model used to study acute and chronic inflammation (Durate et al, Models of Inflammation: Carrageenan Air Pouch, Current Protocols in Pharmacology 5.6.1-5.6.8, March 2012). Injection of irritants into an air pouch in rats or mice induces an inflammatory response that can be quantified by the volume of exudate produced, the infiltration of cells, and the release of inflammatory mediators. An air pouch, is generated by injection of sterile air under the skin of the back of the mouse. […] Air pouch lavage fluid is then analyzed for cell trafficking and cytokine release.
The air pouch assay was performed on 7-week-old BALB/c mice. On days 1 and 3, 0.2 ml/g initial body weight (IBW) of sterile air was injected under the back skin to create the pouch. […] Thirty minutes later, SDF-1 (6 μg) was injected into the pouch. Four hours later, the mice were killed in a CO2 chamber and the air pouch was washed. Cells were collected, counted, and characterized by flow cytometry.

[5] = system: Ramos tumor cells; assay: MTT cell proliferation assay; type: cell-based, human; conditions: 24 to 72 hrs, AM3-114 at 10 μM
Procedure: The ability of the CXCR4 molecules or polypeptides disclosed herein (i-bodies) to inhibit proliferation of Ramos tumor cells, a human Burkitt's lymphoma cell line expressing CXCR4 mentioned above, in vitro was examined in a MTT cell proliferation assay as described in (Lapteva (2005) Cancer Gene Therapy 12, 84-89). Cells were grown in a 96-well tissue culture plate and treated with a vehicle or the anti-CXCR4 body. The cells were then incubated with the MTT solution for approximately 4 hours. After this incubation period, a water-insoluble formazan dye is formed. After solubilization, the formazan dye is quantitated using a scanning multi-well spectrophotometer (ELISA reader).

[6] = Bleomycin mouse model of pulmonary fibrosis; type: in vivo; conditions: day 4, dose not given
Description: The optimal dose of Bleomycin is 2 U/mouse and the optimal time for assessing fibrocyte recruitment was confirmed at day 4. At days 4 bronchoalvelolar lavage (BAL) fluids were collected for analysis of SDF-1 concentration. One half of the lung tissue was used to make single cell suspensions of the lung and the cells used for flow cytometry and assayed for CD45+, CXCR4+ and Collagen1+ (fibrocytes). The other half of the lung tissue was Sircol stained for the presence of collagen 1 and RNA will be tested for Col-1, Col-3 and SDF-1.
SDF-1, fibrocytes and collagen deposition were monitored at Day 4. Groups were dosed with the i-body just prior to administration with Bleomycin. One half of the lung tissue was minced and washed in PBS and used to make single cell suspensions of the lung with Collagenase A and dispase treatment. The cells were then used for flow cytometry and assayed for CD45+, CXCR4+ and Collagen1+ fibrocytes. […]

[7] = system: normal and IPF lung fibroblasts; assay: Wound healing invasion assay of lung fibroblasts; type: cell-based, human; conditions: AMD3100 12 μM, 21H5 130 μg/ml
Procedure: To determine the role of CXCR4 and CXCL12 in fibroblast invasion, normal and IPF lung fibroblasts were utilized in a wound healing invasion assay. ImageLock 96 well plates (Essen Bioscience) were coated with 50 μg/ml of Basement membrane extract (BME; Trevigen) for one hour at room temperature. Normal, and fibroblasts generated from lung biopsies of idiopathic pulmonary fibrosis (IPF) patients showing slow progression or rapid progression of the disease were plated (36,000 cells per well) on the BME-coated plates and incubated overnight. […] The BME was allowed to polymerize by incubating the plate at 37° C. for 15 minutes. The plates were then inserted into an IncuCyte Zoom imaging system and images were acquired every 2 hours for approximately 50 hours. Invasion was quantified using IncuCyte software (Essen Bioscience).

[8] = system: HIV entry into CXCR4 expressing T-cells; assay: In vitro HIV inhibition assay; type: cell-based

B1: 21H5: control i-body which does not bind to CXCR4, isotype control, SEQ ID NO: 82 (protein)
chain: LQVDIVPSQGEISVGESKFFLCQVAGDAKDKDISWFSPNGEKLTPNQQRISVVWNDDSSSTLTIYNANIDDAGIYKCVVTGSDAMSNYSYPISESEATVNVKIFQ
modifications: amino acid sequence encoding 21H5 i-body
For B1, the “blocking of SDF-1α induced platelet aggregation” value [1] was “Neither the negative control i-body nor the control MAb had any effect”, the “mobilisation of human CD34+ stem cells” value [2] was “do not mobilise stem cells” and the “inflammatory T-cell infiltration into the white matter of the brain” value [3] was “Dramatic T-cell infiltration”. For the same molecule, the “cell migration / leukocyte infiltration into the air pouch” value [4] was “did not inhibit cell migration”, the “growth of RAMOS cells” value [5] was “little effect on cell growth” and the “recruitment of fibrocytes into the lungs” value [6] was “Neither the vehicle alone nor the negative control i-body affected recruitment”. The “invasion / motility of normal, slow and rapid IPF lung fibroblast lines” value [7] was “had no effect” and the “effect in HIV inhibition assay” value [8] was “no effect”.
